Test results as given in the supplement of paper PMC9233669.
Variants at the floor of the assay were thinned out.

How the values were obtained:
biotinyl-Ile-oxazolone = experiment: self-aminoacylation, catalytic enhancement (BIO) (fold over background); higher = more active; k-Seq, kA / k0A0; sequences stand for … in GGGAAUGGAUCCACAUCUACGAAUUC…UUCACUGCAGACUUGACGAAGCUG
In short: (§1)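 Mutagenized RNA pools with a 21-nt variable region (0.43 μM) reacted with each biotinyl-aminoacyl-oxazolone at 2–1250 μM. Reactions ran in 50 μL HEPES/NaCl/KCl/MgCl2/CaCl2 buffer with 5% acetonitrile, pH 6.9–7.0, for 90 minutes at room temperature. Streptavidin-captured RNA was quantified by triplicate qPCR and Illumina sequencing, and per-sequence fraction reacted was fit to a pseudo-first-order model with 1000 bootstraps. Catalytic enhancement is median kA divided by the uncatalyzed rate, the low-activity peak of a bimodal Gaussian fit.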

biotinyl-Met-oxazolone = experiment: self-aminoacylation, catalytic enhancement (BMO) (fold over background); higher = more active; k-Seq, kA / k0A0; sequences stand for … in GGGAAUGGAUCCACAUCUACGAAUUC…UUCACUGCAGACUUGACGAAGCUG
In short: as §1

biotinyl-Trp-oxazolone = experiment: self-aminoacylation, catalytic enhancement (BWO) (fold over background); higher = more active; k-Seq, kA / k0A0; sequences stand for … in GGGAAUGGAUCCACAUCUACGAAUUC…UUCACUGCAGACUUGACGAAGCUG
In short: as §1

biotinyl-Val-oxazolone = experiment: self-aminoacylation, catalytic enhancement (BVO) (fold over background); higher = more active; k-Seq, kA / k0A0; sequences stand for … in GGGAAUGGAUCCACAUCUACGAAUUC…UUCACUGCAGACUUGACGAAGCUG
In short: as §1

biotinyl-Leu-oxazolone = experiment: self-aminoacylation, catalytic enhancement (BLO) (fold over background); higher = more active; k-Seq, kA / k0A0; sequences stand for … in GGGAAUGGAUCCACAUCUACGAAUUC…UUCACUGCAGACUUGACGAAGCUG
In short: as §1

biotinyl-Phe-oxazolone = experiment: self-aminoacylation, catalytic enhancement (BFO) (fold over background); higher = more active; k-Seq, kA / k0A0; sequences stand for … in GGGAAUGGAUCCACAUCUACGAAUUC…UUCACUGCAGACUUGACGAAGCUG
In short: as §1

AAGUUUACAAAUAGUCGCAAG [Fam3.1 aminoacylation ribozyme variant]
self-aminoacylation (biotinyl-Ile-oxazolone): 1.92
self-aminoacylation (biotinyl-Met-oxazolone): 1.51
self-aminoacylation (biotinyl-Trp-oxazolone): 1.98
self-aminoacylation (biotinyl-Val-oxazolone): 1.66
self-aminoacylation (biotinyl-Leu-oxazolone): 1.8
self-aminoacylation (biotinyl-Phe-oxazolone): 2.51

AAGUUUACUAAUAGUCGCAAG [Fam3.1 aminoacylation ribozyme variant]
self-aminoacylation (biotinyl-Ile-oxazolone): 1.4
self-aminoacylation (biotinyl-Met-oxazolone): 1.23
self-aminoacylation (biotinyl-Trp-oxazolone): 1.5
self-aminoacylation (biotinyl-Val-oxazolone): 1.32
self-aminoacylation (biotinyl-Leu-oxazolone): 1.3
self-aminoacylation (biotinyl-Phe-oxazolone): 2.7

AAGUUUACUAAUAGUCGCUAG [Fam3.1 aminoacylation ribozyme variant]
self-aminoacylation (biotinyl-Ile-oxazolone): 1.39
self-aminoacylation (biotinyl-Met-oxazolone): 1.29
self-aminoacylation (biotinyl-Trp-oxazolone): 1.69
self-aminoacylation (biotinyl-Val-oxazolone): 1.23
self-aminoacylation (biotinyl-Leu-oxazolone): 1.26
self-aminoacylation (biotinyl-Phe-oxazolone): 2.43

AAGUUUACUACUAGUCGCAAG [Fam3.1 aminoacylation ribozyme variant]
self-aminoacylation (biotinyl-Ile-oxazolone): 1.57
self-aminoacylation (biotinyl-Met-oxazolone): 1.46
self-aminoacylation (biotinyl-Trp-oxazolone): 1.76
self-aminoacylation (biotinyl-Val-oxazolone): 1.6
self-aminoacylation (biotinyl-Leu-oxazolone): 1.27
self-aminoacylation (biotinyl-Phe-oxazolone): 2.04

AAGUUUACUCAUAGUCGCAAG [Fam3.1 aminoacylation ribozyme variant]
self-aminoacylation (biotinyl-Ile-oxazolone): 1.65
self-aminoacylation (biotinyl-Met-oxazolone): 1.58
self-aminoacylation (biotinyl-Trp-oxazolone): 1.88
self-aminoacylation (biotinyl-Val-oxazolone): 1.43
self-aminoacylation (biotinyl-Leu-oxazolone): 1.8
self-aminoacylation (biotinyl-Phe-oxazolone): 2.83

AAGUUUACUGAUAGUCGCAAG [Fam3.1 aminoacylation ribozyme variant]
self-aminoacylation (biotinyl-Ile-oxazolone): 1.62
self-aminoacylation (biotinyl-Met-oxazolone): 1.02
self-aminoacylation (biotinyl-Trp-oxazolone): 1.55
self-aminoacylation (biotinyl-Val-oxazolone): 1.32
self-aminoacylation (biotinyl-Leu-oxazolone): 1.38
self-aminoacylation (biotinyl-Phe-oxazolone): 2.67

AAGUUUACUUAUAGUCGCAAG [Fam3.1 aminoacylation ribozyme variant]
self-aminoacylation (biotinyl-Ile-oxazolone): 1.86
self-aminoacylation (biotinyl-Met-oxazolone): 1.92
self-aminoacylation (biotinyl-Trp-oxazolone): 1.74
self-aminoacylation (biotinyl-Val-oxazolone): 1.58
self-aminoacylation (biotinyl-Leu-oxazolone): 1.39
self-aminoacylation (biotinyl-Phe-oxazolone): 2.5

AAGUUUCCUAAAAGUCGCAAG [Fam3.1 aminoacylation ribozyme variant]
self-aminoacylation (biotinyl-Ile-oxazolone): 1.7
self-aminoacylation (biotinyl-Met-oxazolone): 1.64
self-aminoacylation (biotinyl-Trp-oxazolone): 1.71
self-aminoacylation (biotinyl-Val-oxazolone): 1.57
self-aminoacylation (biotinyl-Leu-oxazolone): 2.06
self-aminoacylation (biotinyl-Phe-oxazolone): 2.23

AAGUUUCCUAAUAGUCACAAG [Fam3.1 aminoacylation ribozyme variant]
self-aminoacylation (biotinyl-Ile-oxazolone): 1.8
self-aminoacylation (biotinyl-Met-oxazolone): 1.77
self-aminoacylation (biotinyl-Trp-oxazolone): 1.23
self-aminoacylation (biotinyl-Val-oxazolone): 1.61
self-aminoacylation (biotinyl-Leu-oxazolone): 1.64
self-aminoacylation (biotinyl-Phe-oxazolone): 2.29

AAGUUUCCUAAUAGUCCCAAG [Fam3.1 aminoacylation ribozyme variant]
self-aminoacylation (biotinyl-Ile-oxazolone): 1.57
self-aminoacylation (biotinyl-Met-oxazolone): 1.5
self-aminoacylation (biotinyl-Trp-oxazolone): 1.48
self-aminoacylation (biotinyl-Val-oxazolone): 1.73
self-aminoacylation (biotinyl-Leu-oxazolone): 1
self-aminoacylation (biotinyl-Phe-oxazolone): 2.59

AAGUUUGAUAAUAGUCGUAAG [Fam3.1 aminoacylation ribozyme variant]
self-aminoacylation (biotinyl-Ile-oxazolone): 0.716
self-aminoacylation (biotinyl-Met-oxazolone): 0.625
self-aminoacylation (biotinyl-Trp-oxazolone): 0.783
self-aminoacylation (biotinyl-Val-oxazolone): 0.603
self-aminoacylation (biotinyl-Leu-oxazolone): 0.65
self-aminoacylation (biotinyl-Phe-oxazolone): 1.38

AAGUUUGAUAAUAGUCUCAAG [Fam3.1 aminoacylation ribozyme variant]
self-aminoacylation (biotinyl-Ile-oxazolone): 0.737
self-aminoacylation (biotinyl-Met-oxazolone): 0.731
self-aminoacylation (biotinyl-Trp-oxazolone): 0.754
self-aminoacylation (biotinyl-Val-oxazolone): 0.703
self-aminoacylation (biotinyl-Leu-oxazolone): 0.638
self-aminoacylation (biotinyl-Phe-oxazolone): 1.46

AAGUUUGAUACUAGUCGCAAG [Fam3.1 aminoacylation ribozyme variant]
self-aminoacylation (biotinyl-Ile-oxazolone): 1.5
self-aminoacylation (biotinyl-Met-oxazolone): 0.811
self-aminoacylation (biotinyl-Trp-oxazolone): 0.887
self-aminoacylation (biotinyl-Val-oxazolone): 1.25
self-aminoacylation (biotinyl-Leu-oxazolone): 1.37
self-aminoacylation (biotinyl-Phe-oxazolone): 1.36

AAGUUUGAUAGUAGUCGCAAG [Fam3.1 aminoacylation ribozyme variant]
self-aminoacylation (biotinyl-Ile-oxazolone): 0.973
self-aminoacylation (biotinyl-Met-oxazolone): 1.17
self-aminoacylation (biotinyl-Trp-oxazolone): 1.21
self-aminoacylation (biotinyl-Val-oxazolone): 0.979
self-aminoacylation (biotinyl-Leu-oxazolone): 0.977
self-aminoacylation (biotinyl-Phe-oxazolone): 0.93

AAGUUUGAUCAUAGUCGCAAG [Fam3.1 aminoacylation ribozyme variant]
self-aminoacylation (biotinyl-Ile-oxazolone): 1.69
self-aminoacylation (biotinyl-Met-oxazolone): 1.55
self-aminoacylation (biotinyl-Trp-oxazolone): 1.2
self-aminoacylation (biotinyl-Val-oxazolone): 1.76
self-aminoacylation (biotinyl-Leu-oxazolone): 1.62
self-aminoacylation (biotinyl-Phe-oxazolone): 2.45

AAGUUUGAUGAUAGUCGCAAG [Fam3.1 aminoacylation ribozyme variant]
self-aminoacylation (biotinyl-Ile-oxazolone): 1.78
self-aminoacylation (biotinyl-Met-oxazolone): 1.49
self-aminoacylation (biotinyl-Trp-oxazolone): 1.4
self-aminoacylation (biotinyl-Val-oxazolone): 1.49
self-aminoacylation (biotinyl-Leu-oxazolone): 1.63
self-aminoacylation (biotinyl-Phe-oxazolone): 2.4

AAGUUUGCAAAGAGUCGCAAG [Fam3.1 aminoacylation ribozyme variant]
self-aminoacylation (biotinyl-Ile-oxazolone): 0.841
self-aminoacylation (biotinyl-Met-oxazolone): 0.929
self-aminoacylation (biotinyl-Trp-oxazolone): 1.54
self-aminoacylation (biotinyl-Val-oxazolone): 0.832
self-aminoacylation (biotinyl-Leu-oxazolone): 0.949
self-aminoacylation (biotinyl-Phe-oxazolone): 1.41

AAGUUUGCAAAUAGUCGCAUG [Fam3.1 aminoacylation ribozyme variant]
self-aminoacylation (biotinyl-Ile-oxazolone): 1.14
self-aminoacylation (biotinyl-Met-oxazolone): 1.07
self-aminoacylation (biotinyl-Trp-oxazolone): 1.46
self-aminoacylation (biotinyl-Val-oxazolone): 0.978
self-aminoacylation (biotinyl-Leu-oxazolone): 0.874
self-aminoacylation (biotinyl-Phe-oxazolone): 0.739

AAGUUUGCAAAUAUUCGCAAG [Fam3.1 aminoacylation ribozyme variant]
self-aminoacylation (biotinyl-Ile-oxazolone): 0.999
self-aminoacylation (biotinyl-Met-oxazolone): 1.25
self-aminoacylation (biotinyl-Trp-oxazolone): 1.35
self-aminoacylation (biotinyl-Val-oxazolone): 1.03
self-aminoacylation (biotinyl-Leu-oxazolone): 1.09
self-aminoacylation (biotinyl-Phe-oxazolone): 1.3

AAGUUUGCCAAUAGUCGGAAG [Fam3.1 aminoacylation ribozyme variant]
self-aminoacylation (biotinyl-Ile-oxazolone): 1.14
self-aminoacylation (biotinyl-Met-oxazolone): 0.781
self-aminoacylation (biotinyl-Trp-oxazolone): 0.79
self-aminoacylation (biotinyl-Val-oxazolone): 0.968
self-aminoacylation (biotinyl-Leu-oxazolone): 0.941
self-aminoacylation (biotinyl-Phe-oxazolone): 1.28

AAGUUUGCGAAGAGUCGCAAG [Fam3.1 aminoacylation ribozyme variant]
self-aminoacylation (biotinyl-Ile-oxazolone): 1.36
self-aminoacylation (biotinyl-Met-oxazolone): 0.955
self-aminoacylation (biotinyl-Trp-oxazolone): 1
self-aminoacylation (biotinyl-Val-oxazolone): 1.21
self-aminoacylation (biotinyl-Leu-oxazolone): 1.04
self-aminoacylation (biotinyl-Phe-oxazolone): 1.49

AAGUUUGCGAAUAGUCGCAAA [Fam3.1 aminoacylation ribozyme variant]
self-aminoacylation (biotinyl-Ile-oxazolone): 2.03
self-aminoacylation (biotinyl-Met-oxazolone): 2.22
self-aminoacylation (biotinyl-Trp-oxazolone): 1.31
self-aminoacylation (biotinyl-Val-oxazolone): 1.57
self-aminoacylation (biotinyl-Leu-oxazolone): 1.38
self-aminoacylation (biotinyl-Phe-oxazolone): 1.97

AAGUUUGCGAAUCGUCGCAAG [Fam3.1 aminoacylation ribozyme variant]
self-aminoacylation (biotinyl-Ile-oxazolone): 1.31
self-aminoacylation (biotinyl-Met-oxazolone): 1.19
self-aminoacylation (biotinyl-Trp-oxazolone): 1
self-aminoacylation (biotinyl-Val-oxazolone): 1.1
self-aminoacylation (biotinyl-Leu-oxazolone): 0.942
self-aminoacylation (biotinyl-Phe-oxazolone): 1.79
